Assay results from patent publication US20230101735A1, “ANTI-TROP-2 ANTIDODY-EXATECAN ANALOG CONJUGATE AND MEDICAL USE THEREOF” (JIANGSU HENGRUI MEDICINE CO., LTD., priority 2020, published 2023).

Key:
hTROP-2 = target: T1, hTROP-2 (Homo sapiens, UniProt P09758); assay: Antibody protein level binding assay (ELISA); settings: absorbance at 450 nm
T1 sequence (P09758 27-274): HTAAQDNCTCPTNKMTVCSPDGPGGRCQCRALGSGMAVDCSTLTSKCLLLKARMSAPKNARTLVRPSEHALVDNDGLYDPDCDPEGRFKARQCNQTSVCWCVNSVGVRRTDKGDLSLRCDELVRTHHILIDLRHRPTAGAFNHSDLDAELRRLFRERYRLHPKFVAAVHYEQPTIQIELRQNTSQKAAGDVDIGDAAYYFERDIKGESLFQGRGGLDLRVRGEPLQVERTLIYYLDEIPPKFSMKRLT
Protocol: (§1) hTROP-2 protein was diluted to 1 μg/mL with PBS buffer at pH 7.4 (Shanghai BasalMedia Technologies Co., LTD., B320), added into a 96-well microplate at 100 μL per well, and incubated at 4° C. overnight. After the liquid was discarded, 300 μL of 5% skim milk (BD, 232100) diluted with PBS was added into each well for blocking and incubated at 37° C. for 2 h. After the blocking was completed, the blocking solution was discarded; after the plate was washed 3 times with PBST buffer (pH 7.4, PBS containing 0.1% tween-20), 100 μL of a gradient diluted antibody solution was added into each well and incubated at 37° C. for 1 h. After the incubation was completed, the plate was washed 3 times with PBST buffer, and 100 μL of 1:8000 diluted mouse anti-human IgG (H+L) (Jackson ImmunoResearch, 209-035-088) was added into each well and incubated at 37° C. for 1 h. After the plate was washed 3 times with PBST buffer, 100 μL of TMB chromogenic substrate (KPL, 5120-0077) was added into each well and incubated at room temperature for 10-15 min, and the reaction was terminated by adding 50 μL of 1 M H2504 into each well. The plate was detected for the absorbance at 450 nm using a microplate reader, the binding curves of antibodies to antigen were fitted with software, and the EC50 value was calculated.

TROP-2 = assay: Antibody endocytosis assay (DT3C cell killing); assay type: cell-based; settings: antibody-DT3C mixture, three days, CTG
[1] = target: T2, TROP-2 expressed on tumor cell lines (FaDu, HCC827, Colo205, DMS53, SK-OV-3) (human, UniProt P09758 27-323); assay: cell-based or functional assay
T2 sequence: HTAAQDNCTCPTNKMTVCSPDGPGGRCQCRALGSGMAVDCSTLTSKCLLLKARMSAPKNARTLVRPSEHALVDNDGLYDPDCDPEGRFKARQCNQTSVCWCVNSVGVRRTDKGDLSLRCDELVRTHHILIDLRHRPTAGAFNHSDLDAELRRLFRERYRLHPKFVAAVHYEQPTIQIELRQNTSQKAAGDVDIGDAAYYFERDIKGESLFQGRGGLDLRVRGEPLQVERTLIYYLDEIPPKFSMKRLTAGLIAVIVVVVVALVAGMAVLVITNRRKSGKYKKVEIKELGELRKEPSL

[2] = target: T3, human TROP-2 on stably transfected CHO-K1 cells (CHO-K1/hTROP-2) (human, UniProt P09758 27-323); assay: flow cytometry on stably transfected TROP-2-expressing CHOK1 cells
T3 construct: Full-length TROP-2 (Genbank NP_002344.2) expressed from a lentiviral vector; also called stably transfected TROP-2-expressing CHOK1 cells; hTROP-2 protein-expressing cells
T3 sequence: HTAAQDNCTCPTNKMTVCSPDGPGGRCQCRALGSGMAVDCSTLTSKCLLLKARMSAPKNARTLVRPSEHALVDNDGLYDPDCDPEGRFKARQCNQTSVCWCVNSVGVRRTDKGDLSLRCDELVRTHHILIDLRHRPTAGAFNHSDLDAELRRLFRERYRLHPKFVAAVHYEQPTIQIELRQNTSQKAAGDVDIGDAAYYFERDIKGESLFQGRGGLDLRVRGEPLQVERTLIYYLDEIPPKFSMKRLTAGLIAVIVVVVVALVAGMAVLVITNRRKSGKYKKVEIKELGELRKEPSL
Protocol: (§2) After centrifugation and removal of the supernatant, the test antibodies that was diluted with FACS buffer to different concentrations were added at 50 μL/well. The plate was incubated in the dark in a 4° C. refrigerator for 1 h. The plate was washed 3 times with FACS buffer by centrifugation at 300 g, and Alexa Fluor 488 goat anti-human IgG (H+L) (invitrogen, A-11013) at working concentration was added. The plate was incubated in the dark in a 4° C. refrigerator for 40 min. The plate was washed 3 times with FACS buffer by centrifugation at 300 g and tested on a BD FACSCantoII flow cytometer for geometric mean fluorescence intensity (MFI). The binding EC₅₀ value of the antibody to the stably transfected TROP-2-expressing cells was calculated.

[3] = target: T4, hTROP-2 protein (huTROP-2 protein, His27-Thr274, accession No. NP_002344.2) (human, UniProt P09758 27-274); assay: SPR (Biacore T200), antibody captured on chip, hTROP-2 as analyte, 1:1 Langmuir fit
T4 construct: No tag is stated for this construct; also called antigen hTROP-2
T4 sequence: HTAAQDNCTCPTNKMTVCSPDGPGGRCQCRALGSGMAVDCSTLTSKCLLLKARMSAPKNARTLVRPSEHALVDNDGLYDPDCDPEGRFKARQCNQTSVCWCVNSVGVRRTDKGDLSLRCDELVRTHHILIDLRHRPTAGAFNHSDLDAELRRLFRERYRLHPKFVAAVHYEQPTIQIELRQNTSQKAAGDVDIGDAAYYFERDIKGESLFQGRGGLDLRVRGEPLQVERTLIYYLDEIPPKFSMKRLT
Excerpt: The affinity of antibody for TROP-2 was detected in a form of a capture antibody. […] After dissociation was completed for each assay cycle, the chip was washed clean and regenerated with regeneration buffer, Glycine1.5 (Cat. #BR100354, GE) or 3 M MgCl₂ (from Human antibody capture kit, Cat. #BR100839, GE). After the assay was completed, the data were fitted with (1:1) Langmuir model using GE Biacore T200 Evaluation version 3.0 to obtain affinity values.

[4] = target: T4, hTROP-2 protein (huTROP-2 protein, …); assay: ELISA, plate coated with hTROP-2 protein at 1 ug/mL, anti-human IgG detection, OD450
Protocol: as §1, with “EC₅₀” for “EC50”

[5] = target: T3, human TROP-2 on stably transfected …; assay: flow cytometry (geometric mean fluorescence) on stably transfected TROP-2-expressing CHOK1 cells, Alexa Fluor 488 anti-human IgG detection
Protocol: as §2

[6] = target: T2, TROP-2 expressed on tumor cell lines …; assay: cell-based or functional assay; remark: listed apart in the source

## hRS7: control anti-TROP-2 antibody, heavy chain SEQ ID NO: 15, light chain SEQ ID NO: 16, constructed with reference to WO03074566 [reference compound]
hTROP-2
  Emax (OD value): 1.37 OD value
TROP-2
  Emax: 98.5%

B1: ADC-4 (TINA-58, n=3.99) (antibody, human IgG1, kappa, V domains shown)
VH: QVQLVQSGAEVKKPGASVKVSCKASGYTFTTAGMQWVRQAPGQGLEWMGWINTHSGVPKYAEDFKGRVTISADTSTSTAYLQLSSLKSEDTAVYYCARSGFGSSYWYFDVWGQGTLVTVSS
VL: DIQMTQSPSSLSASVGDRVTITCKASQDVSTAVAWYQQKPGKAPKLLIYSASYRYTGVPSRFSGSGSGTDFTLTISSLQPEDFAVYYCQQHYITPLTFGQGTKLEIKR
modifications: compound 58 coupled to cysteine thiols after TCEP reduction; positions not given; compound 58 (linker-drug) coupled to cysteine thiols after TCEP reduction; mean n=3.99 per antibody, positions not given
[1]
  EC50 (nM), killing of Colo205 cells: 59.8 nM
  EC50 (nM), killing of DMS53 cells: 75.6 nM
  EC50 (nM), killing of FaDu cells (CTG, 6 days): 0.53 nM
  EC50 (nM), killing of HCC827 cells: 0.27 nM
  Emax (%), killing of Colo205 cells: 99.7%
  Emax (%), killing of DMS53 cells: 89.8%
  Emax (%), killing of FaDu cells: 101%
  Emax (%), killing of HCC827 cells: 88.2%
  Emax (%), killing of SK-OV-3 cells: 49.1%

B2: PD3 anti-TROP-2 antibody (antibody, human IgG1, kappa, V domains shown)
VH: EVQLVQSGSELKKPGASVKVSCKASGYTFTNYGMNWVKQAPGQGLKWMGWINTYTGEPTYTQDFKGRFAFSLDTSVSTAYLQISSLKAEDTAVYYCARGGFGSSYWYFDVWGQGTLVTVSS
VL: DIQLTQSPSSLSASVGDRVSITCKASQDVSIAVAWYQQKPGKAPKLLIYSASYRYTGVPDRFSGSGSGTDFTLTISSLQPEDFAVYYCQQHYITPLTFGAGTKVEIKR
notes: CDR-mutated variant designed on the hRS7 template; also called PD3 antibody
[2]
  EC50: 1.57 nM
  Emax (MFI): 16700 MFI
[3]
  Kd: 0.686 nM
[4]
  EC50: 13.6 nM
  Emax (OD value): 1.4 OD
[5]
  EC50 (read off the curve): ~2 µg/mL

B3: TINA anti-TROP-2 antibody (control molecule) (antibody, human IgG1, kappa, V domains shown)
VH: QVQLVQSGAEVKKPGASVKVSCKASGYTFTTAGMQWVRQAPGQGLEWMGWINTHSGVPKYAEDFKGRVTISADTSTSTAYLQLSSLKSEDTAVYYCARSGFGSSYWYFDVWGQGTLVTVSS
VL: DIQMTQSPSSLSASVGDRVTITCKASQDVSTAVAWYQQKPGKAPKLLIYSASYRYTGVPSRFSGSGSGTDFTLTISSLQPEDFAVYYCQQHYITPLTFGQGTKLEIKR
[2]
  EC50: 3.55 nM
  Emax (MFI): 14200 MFI
[3]
  Kd: 21.5 nM
[4]
  EC50: 16.1 nM
  Emax (OD value): 1.39 OD
[5]
  EC50 (read off the curve): ~4 µg/mL

B4: ADC-7 (hRS7-9-A, n=3.72) (antibody, human IgG1, kappa, V domains shown)
VH: QVQLQQSGSELKKPGASVKVSCKASGYTFTNYGMNWVKQAPGQGLKWMGWINTYTGEPTYTDDFKGRFAFSLDTSVSTAYLQISSLKADDTAVYFCARGGFGSSYWYFDVWGQGSLVTVSS
VL: DIQLTQSPSSLSASVGDRVSITCKASQDVSIAVAWYQQKPGKAPKLLIYSASYRYTGVPDRFSGSGSGTDFTLTISSLQPEDFAVYYCQQHYITPLTFGAGTKVEIKR
modifications: compound 9-A coupled to cysteine thiols after TCEP reduction; positions not given; compound 9-A coupled to cysteine thiols after TCEP reduction; mean n=3.72 per antibody, positions not given
[1]
  EC50 (nM), killing of Colo205 cells: 52.8 nM
  EC50 (nM), killing of DMS53 cells: 72.9 nM
  EC50 (nM), killing of FaDu cells (CTG, 6 days): 0.31 nM
  EC50 (nM), killing of HCC827 cells: 0.18 nM
  Emax (%), killing of Colo205 cells: 99.5%
  Emax (%), killing of DMS53 cells: 88.7%
  Emax (%), killing of FaDu cells: 101%
  Emax (%), killing of HCC827 cells: 89.3%
  Emax (%), killing of SK-OV-3 cells: 66.1%

B5: ADC-5 (PD3-58, n=3.88) (antibody, human IgG1, kappa, V domains shown)
VH: EVQLVQSGSELKKPGASVKVSCKASGYTFTNYGMNWVKQAPGQGLKWMGWINTYTGEPTYTQDFKGRFAFSLDTSVSTAYLQISSLKAEDTAVYYCARGGFGSSYWYFDVWGQGTLVTVSS
VL: DIQLTQSPSSLSASVGDRVSITCKASQDVSIAVAWYQQKPGKAPKLLIYSASYRYTGVPDRFSGSGSGTDFTLTISSLQPEDFAVYYCQQHYITPLTFGAGTKVEIKR
modifications: compound 58 coupled to cysteine thiols after TCEP reduction; positions not given; compound 58 coupled to cysteine thiols after TCEP reduction; mean n=3.88 per antibody, positions not given
[6]
  EC50 (nM), killing of Colo205 cells (second parallel assay): 25.6 nM
  EC50 (nM), killing of DMS53 cells (second parallel assay): 25.7 nM
  EC50 (nM), killing of FaDu cells (second parallel assay): 0.14 nM
  EC50 (nM), killing of HCC827 cells (second parallel assay): 0.13 nM

B6: hRS7 anti-TROP-2 antibody (control molecule) (antibody, human IgG1, kappa, V domains shown)
VH: QVQLQQSGSELKKPGASVKVSCKASGYTFTNYGMNWVKQAPGQGLKWMGWINTYTGEPTYTDDFKGRFAFSLDTSVSTAYLQISSLKADDTAVYFCARGGFGSSYWYFDVWGQGSLVTVSS
VL: DIQLTQSPSSLSASVGDRVSITCKASQDVSIAVAWYQQKPGKAPKLLIYSASYRYTGVPDRFSGSGSGTDFTLTISSLQPEDFAVYYCQQHYITPLTFGAGTKVEIKR
[2]
  EC50: 2.31 nM
  Emax (MFI): 16000 MFI
[3]
  Kd: 0.987 nM
[4]
  EC50: 18.3 nM
  Emax (OD value): 1.37 OD
[5]
  EC50 (read off the curve): ~3 µg/mL
